The target of one assay is T1, TUTase (Homo sapiens, UniProt Q5TAX3).
T1 construct: Flag; made in house; host or cells: HEK293 / HEK293T cells (transient transfection, anti-Flag M2 purification)
The experiment in a line: In vitro TUTase activity (uridylation) assay. The class given is biochemical. As to conditions: chain terminator; prevents oligo-U tail elongation. The method, then: In vitro TUTase assays can be employed also. Some of the hit compounds may influence Lin28A-TUTase activity independent of altered expression levels. […] For in vitro uridylation assays, synthetic pre-let-7 RNA is incubated with the affinity-purified proteins in the presence of [α-^32P]-UTP.
A pilot screen is performed on the in vitro assay, using a chemical library that contains a collection of nucleotide analogs. The catalytic activity of the TUTase is inhibited by certain nucleotide analogs, and that the identification of these compounds through HTS will lead to their utility as a novel chemotherapeutic in Lin28A-expressing cancers. There are readily available libraries of such compounds; similar compounds have already been applied in the clinic. […] Then, putative hits from this primary screen are evaluated through secondary screens that include dose curves, in vitro TUTase activity assays, and analyses of let-7 expression by q.RT-PCR on compound-treated cells. […]
Purified proteins were incubated with 4 pmol of unlabelled synthetic RNA (Dharmacon) for 1 hour at 37° C. in a 30 μl reaction mixture containing 100 mM KCl, 20 mM Tris-HCl pH 7.6, 10% Glycerol, 125 nM [α-^32P]UTP, 3.2 mM MgCl2, 40 U RNasin ribonuclease inhibitor (Promega). Products were resolved on 15% denaturing polyacrylamide gels and bands were detected by autoradiography.

The subject of a further assay is pri-let-7g. The experiment in a line: EMSA of recombinant Lin28A and Lin28B with pri-let-7g. The class given is binding. As to conditions: in vitro transcribed uniformly labeled pri-let-7g. The procedure:
(§1) Furthermore, Lin28B directly binds and sequesters pri-let-7. To further dissect the mechanism of the Lin28B-mediated let-7 processing block, the relative abilities of recombinant human Lin28A and Lin28B proteins to bind pre-let-7 were compared. (FIG. 7A, 7B and FIG. 8). EMSA was performed with pre-let-7g to analyze the relative binding affinities of the two recombinant proteins. Lin28A and Lin28B have apparent Kds of approximately 0.6 nM and 0.5 nM, respectively (FIG. 7B). Both these estimated Kds are much lower than a previously reported for recombinant mouse Lin28A. This difference is likely due to the omission here of nonspecific yeast tRNA competitor used previously in the binding buffer. Piskounova et al., 2008. […] Collectively, these assays reveal that both Lin28 proteins can directly bind to let-7 precursors with high-affinity in vitro.
(§2) Transformed BL21-CodonPlus® Competent bacteria (Stratagene) were grown to an OD600 nm of 0.4-0.6. […] Band intensities of scanned gels were quantified using ImageJ software and used to calculate percentage of probe bound. […] […] Percent active protein was determined using stoichiometric binding reactions as described in Ryder et al. (2008) Hills equation for specific binding with one site, Y=Bmax*X^h= […]
(Mobility shift assays separate free from complexed probe on a gel.)

In the next assay the target is pre-let-7g. Nature of the assay: EMSA of recombinant Lin28A and Lin28B with pre-let-7g. The class given is binding. As to conditions: 0.5 nM 5′-end labeled pre-let-7g, without competitor yeast tRNA, estimated, read-out: apparent Kd. The method, then:
as §1, §2

T1 sequence (Q5TAX3 whole entry): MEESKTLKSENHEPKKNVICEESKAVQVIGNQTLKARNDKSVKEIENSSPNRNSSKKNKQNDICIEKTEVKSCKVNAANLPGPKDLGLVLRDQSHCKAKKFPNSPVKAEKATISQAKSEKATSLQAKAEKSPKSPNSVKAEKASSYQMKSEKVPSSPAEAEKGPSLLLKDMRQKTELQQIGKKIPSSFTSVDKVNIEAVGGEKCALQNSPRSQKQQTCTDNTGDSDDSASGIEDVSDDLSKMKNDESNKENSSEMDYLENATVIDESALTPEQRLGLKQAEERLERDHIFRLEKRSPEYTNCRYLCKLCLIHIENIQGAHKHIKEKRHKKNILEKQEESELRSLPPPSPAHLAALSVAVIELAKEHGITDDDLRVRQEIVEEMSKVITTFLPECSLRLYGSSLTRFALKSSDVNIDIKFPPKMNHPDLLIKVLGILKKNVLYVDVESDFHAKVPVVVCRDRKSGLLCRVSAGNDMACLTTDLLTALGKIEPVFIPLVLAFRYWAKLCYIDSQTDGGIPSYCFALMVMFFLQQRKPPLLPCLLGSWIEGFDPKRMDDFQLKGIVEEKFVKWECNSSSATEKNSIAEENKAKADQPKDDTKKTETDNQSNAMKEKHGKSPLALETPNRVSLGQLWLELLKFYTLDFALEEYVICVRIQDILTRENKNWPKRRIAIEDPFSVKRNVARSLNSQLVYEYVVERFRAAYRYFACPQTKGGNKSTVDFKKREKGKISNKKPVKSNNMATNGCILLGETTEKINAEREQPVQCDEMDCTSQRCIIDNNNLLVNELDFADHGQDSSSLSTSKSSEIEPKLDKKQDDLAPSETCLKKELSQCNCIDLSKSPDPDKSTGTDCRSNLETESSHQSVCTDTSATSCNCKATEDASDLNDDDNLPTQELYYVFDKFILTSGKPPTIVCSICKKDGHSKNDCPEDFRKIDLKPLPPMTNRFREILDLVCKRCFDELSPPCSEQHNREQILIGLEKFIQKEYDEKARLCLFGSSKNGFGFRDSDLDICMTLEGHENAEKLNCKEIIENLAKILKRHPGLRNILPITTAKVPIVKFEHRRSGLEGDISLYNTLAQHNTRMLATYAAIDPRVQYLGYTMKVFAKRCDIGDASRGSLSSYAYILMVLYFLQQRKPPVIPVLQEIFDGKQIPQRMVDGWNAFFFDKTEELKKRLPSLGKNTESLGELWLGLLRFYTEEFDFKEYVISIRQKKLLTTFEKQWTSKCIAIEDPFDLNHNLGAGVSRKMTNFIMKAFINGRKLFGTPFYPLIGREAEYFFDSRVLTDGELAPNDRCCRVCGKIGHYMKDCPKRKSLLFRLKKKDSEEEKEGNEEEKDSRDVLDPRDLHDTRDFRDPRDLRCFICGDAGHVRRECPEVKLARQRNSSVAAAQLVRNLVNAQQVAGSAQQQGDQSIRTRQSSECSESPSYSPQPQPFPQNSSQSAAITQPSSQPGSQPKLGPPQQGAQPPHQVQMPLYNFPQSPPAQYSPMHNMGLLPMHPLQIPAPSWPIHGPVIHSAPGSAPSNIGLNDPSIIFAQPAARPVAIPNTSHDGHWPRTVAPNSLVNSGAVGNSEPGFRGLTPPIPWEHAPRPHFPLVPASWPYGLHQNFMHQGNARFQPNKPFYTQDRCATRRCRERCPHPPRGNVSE

Take `O=c1ccn([C@H]2CC[C@@H](COP(=O)(O)OP(=O)(O)OP(=O)(O)O)O2)c(=O)[nH]1` [2′,3′-dideoxy-UTP]: the “TUTase activity in vitro” value on TUTase is “effectively inhibits TUTase activity in vitro”.

B1: Lin28A: purified recombinant human His-tagged Lin28A RNA-binding protein (protein, UniProt Q9H9Z2 2-209, looked up)
Protein lin-28 homolog A: GSVSNQQFAGGCAKAAEEAPEEAPEDAARAADEPQLLHGAGICKWFNVRMGFGFLSMTARAGVALDPPVDVFVHQSKLHMEGFRSLKEGEAVEFTFKKSAKGLESIRVTGPGGVFCIGSERRPKGKSMQKRRSKGDRCYNCGGLDHHAKECKLPPQPKKCHFCQSISHMVASCPLKAQQGPSAQGKPTYFREEEEEIHSPTLLPEAQN
modifications: His tag
Regarding B1, the “binding to pri-let-7g” value in the assay on pri-let-7g is reported as “able to bind pri-let-7g with similar affinities”. Moreover, the Kd at pre-let-7g was around 0.6 nM.

B2: Lin28B: purified recombinant human His-tagged Lin28B RNA-binding protein (protein)
chain: MAEGGASKGGGEEPGKLPEPAEEESQVLRGTGHCKWFNVRMGFGFISMINREGSPLDIPVDVFVHQSKLFMEGFRSLKEGEPVEFTFKKSSKGLESIRVTGPGGSPCLGSERRPKGKTLQKRKPKGDRCYNCGGLDHHAKECSLPPQPKKCHYCQSIMHMVANCPHKNVAQPPASSQGRQEAESQPCTSTLPREVGGGHGCTSPPFPQEARAEISERSGRSPQEASSTKSSIAPEEQSKKGPSVQKRKKT
modifications: left off: small tags and cut ends
For the molecule B2, the “binding to pri-let-7g” value in the assay with pri-let-7g was “able to bind pri-let-7g with similar affinities”. Besides, the Kd on pre-let-7g was around 0.5 nM.
